Measurements taken from patent publication US20240309087A1 (SHANGHAI JUNSHI BIOSCIENCES, published 2024).
Numbering of substitutions follows the chain as printed.

T1: human CD112R on Jurkat CD112R effector cells (human, UniProt Q6DKI7 1-326)
T1 sequence (looked up): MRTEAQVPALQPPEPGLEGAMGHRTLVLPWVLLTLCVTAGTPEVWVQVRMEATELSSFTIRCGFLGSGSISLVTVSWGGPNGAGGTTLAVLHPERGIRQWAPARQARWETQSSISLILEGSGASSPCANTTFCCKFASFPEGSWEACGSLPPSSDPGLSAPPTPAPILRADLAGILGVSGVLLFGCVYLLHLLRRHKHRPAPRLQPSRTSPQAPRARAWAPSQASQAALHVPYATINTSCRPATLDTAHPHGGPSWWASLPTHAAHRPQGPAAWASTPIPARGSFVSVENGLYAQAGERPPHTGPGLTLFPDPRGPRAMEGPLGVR

T2: hCD112R mFC recombinant protein (human; murine, UniProt Q6DKI7 41-160)
T2 construct: range 41-160; expressed in 293E cells; also called hCD112R ECD mFC; hCD112R-ECD-mFC; not shown: murine IgG2a Fc domain (MX2-mFc vector)
T2 sequence (looked up): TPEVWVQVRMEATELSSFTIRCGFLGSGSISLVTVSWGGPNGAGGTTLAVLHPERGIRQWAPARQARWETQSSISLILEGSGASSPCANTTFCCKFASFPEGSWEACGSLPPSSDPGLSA

T3: human CD112R on CHO-CD112R cells (human, UniProt Q6DKI7 41-326)
T3 construct: whole, on cells; also called hCD112R; PVRIG
T3 sequence (looked up): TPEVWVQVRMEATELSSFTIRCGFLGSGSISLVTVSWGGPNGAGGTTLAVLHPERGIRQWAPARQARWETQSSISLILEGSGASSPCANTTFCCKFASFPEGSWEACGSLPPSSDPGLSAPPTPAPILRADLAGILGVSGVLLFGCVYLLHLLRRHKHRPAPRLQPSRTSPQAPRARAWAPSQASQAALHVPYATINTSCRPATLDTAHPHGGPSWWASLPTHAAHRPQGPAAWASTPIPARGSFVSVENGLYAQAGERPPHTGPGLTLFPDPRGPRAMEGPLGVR

T4: recombinant cynomolgus monkey CD112R antigen (cynomolgus monkey, UniProt A0A2K5WVV8 1-322)
T4 construct: bought
T4 sequence: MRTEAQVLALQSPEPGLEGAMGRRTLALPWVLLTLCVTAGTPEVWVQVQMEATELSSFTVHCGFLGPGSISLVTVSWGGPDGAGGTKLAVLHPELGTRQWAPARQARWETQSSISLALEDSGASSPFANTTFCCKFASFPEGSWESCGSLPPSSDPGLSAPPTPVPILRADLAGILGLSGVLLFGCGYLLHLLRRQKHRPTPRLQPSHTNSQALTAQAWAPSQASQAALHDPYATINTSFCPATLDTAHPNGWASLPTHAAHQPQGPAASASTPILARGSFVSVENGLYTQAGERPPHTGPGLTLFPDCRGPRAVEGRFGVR

B1: Chi-45 (antibody, V domains shown)
VH: DVKLVESGGGLVKLGGSLKLSCAASGFTFSSYHMSWVRQTPEKRLELVAAINSNVISTYYLDTVKGRFTISRDNAKNTLYLQMSSLKSEDTALYYCARHEDYYGFAMDYWGQGTSVTVSS
VL: SIVMTQTPKFLLVSAGDRVTITCKASQSVSNDVAWYQEKPGQSPKLLMYYVSHRFTGVPDRFTGSGYGTDFTFTINTVQAEDLAVYFCHQAYRSPWTFGGGTKLEIK
notes: chimeric
B2: Chi-63 (antibody, V domains shown)
VH: DVKLVESGGGLVKLGGSLKLSCAASGFTFSSYHMSWVRQTPEKRLELVAAISRDGDSTYYPDTVKGRFTISRDDAENTLYLQMSSLKSEDTALYYCSRHEDYFGFAMDSWGQGTSVTVSS
VL: B1 VL with S30T, E38Q, H53N, R54H, F55Y, T63I, N76S, H89Q
notes: chimeric
B3: Chi-54 (antibody, V domains shown)
VH: B1 VH with V37I, V55G, S57N
VL: B1 VL with E38Q, H53N, H89Q
notes: chimeric
B4: Chi-47 (antibody, V domains shown)
VH: B1 VH
VL: B1 VL with S30T, E38Q, H53N, R54H, F55Y, T63I, N76S, H89Q
notes: chimeric
B5: Chi-46 (antibody, V domains shown)
VH: B1 VH
VL: B1 VL with E38Q, H53N, H89Q
notes: chimeric
B6: Chi-36 (antibody, V domains shown)
VH: EVQLQQSGPELVKPGASVRISCKASGYTFTDYNMHWVKQSHGKSLEWIGYIYPYNGGTGHNQNFKSKATLTVDKSSSTAYMEFRSLTSDDSAVYYCAREDFRHEKMDYWGQGTSVTVSS
VL: DIQMTQSPASLSASVGETVTITCRTSDNIYVYLSWYQQKQGKSPQLLVYNAKTLTENVPSRFSGSGSGTQFSLKINSLQPEDFGSYYCQHHYGTPYTFGGGTKLEIK
notes: chimeric
B7: 8H8.1 (antibody, V domains shown)
VH: EVKLVESGGGLVKPGGSLKVSCAASGFTFSDYPMSWVRQTPDKRLEWVACIDTDENTYYPDSVKGRFTISRDNGRNIVNLQMSSLRSEDAAMYYCARGWDDYAAWFAYWGQGTLVTVSA
VL: ENVLTQFPAIMSVFLGERVTMSCRASSSVNYMYWYQQKSDASPKLWIYHTSNLAPGVPARFSGSGSGNSYSLTISSMEGEDAATYYCQQFTSSPWTFGGGTKLEIK
notes: murine hybridoma antibody
B8: Chi-72 (antibody, V domains shown)
VH: B1 VH with K3Q, A23V, V37I, V55D, S57N, N74I, Y80H
VL: DIQLTQSPASLSVSVGETVTITCRVSANIYSNLVWYHQRQGKSPQLLVYGGTNLADGVPSRFSGSGSGTQFSLKINSLQSEDFGSYHCQHFWSTPYTFGGGTKLEIK
notes: chimeric

Molecular target: T1, human CD112R on Jurkat CD112R effector …
Assay: cell-based or functional assay

Row | Binder | EC50, CD112R/CD112 reporter [µg/mL] | Relative activity (%), EC50 Ref/EC50 antibody [%]
1 | B1 | 0.0119 | 2710
2 | B2 | 0.0174 | 1490
3 | B3 | 0.00746 | 4210
4 | B4 | 0.014 | 2230
5 | B5 | 0.00701 | 4610
6 | B6 | 0.0306 | 1060

Molecular target: T2, hCD112R mFC recombinant protein
Assay: Biacore T200, antibody captured, hCD112R mFc injected
Protocol: Biacore T200 was used to assay the binding affinity of the anti-CD112R hybridoma antibodies for the recombinant hCD112R mFc protein. […] antibody fragments (Jackson ImmunoResearch) were coupled to the surface of a CM5 chip, and the anti-CD112R hybridoma antibodies were each captured by using the chip, after which recombinant hCD112R mFc proteins at different concentrations were injected into the CM5 chip.

Row | Binder | Kd [nM]
7 | B7 | 0.0588

Molecular target: T3, human CD112R on CHO-CD112R cells
Assay: FACS on CHO-CD112R cells
Protocol: (§1) CHO-CD112R cells (constructed in-house by Junshi, the amino acid sequence of CD112R in the construction of stable cell lines overexpressing CD112R comprises amino acids at positions Met1-Arg326 under NCBI accession No. Q6DKI7) overexpressing human CD112R were incubated with each of the chimeric anti-CD112R antibodies at different concentrations (initial concentration: 50 μg/mL, 5-fold dilution, 12 concentration gradients in total) at 4° C. for 30 min, and then washed and incubated with a fluorescence-labeled secondary antibody at 4° C. for 30 min in the dark. Finally, the cells were collected by using a flow cytometer (BD Canto II), and the fluorescent antibodies bound to the cell surface were detected. Raw data were analyzed by using FlowJo to obtain MFI values, the antibody dose-dependent binding curves were fitted by using GraphPad (FIG. 3, a and b) and EC₅₀ was calculated (Table 3). The positive control and the negative control were Ref (anti-CD112R antibody, University of Colorado, obtained by expression and purification according to the sequences in US20170240613) and anti-KLH hu-IgG4 antibody, respectively.

Row | Binder | EC50 [µg/mL]
8 | B1 | 0.726
9 | B2 | 0.531
10 | B3 | 0.122
11 | B8 | 12.3
12 | B4 | 0.28
13 | B5 | 0.433
14 | B6 | 0.351

Molecular target: T4, recombinant cynomolgus monkey CD112R …
Assay: ELISA, coated cynomolgus monkey CD112R; EC50 Ref/EC50 antibody
Protocol: (§2) A plate was coated with a recombinant cynomolgus monkey CD112R antigen (Acrobiosystems, Cat No. PVG-C5259) at a fixed concentration, and the chimeric anti-CD112R antibodies diluted in a gradient (initial concentration: 1 μg/mL, 2.5-fold gradient dilution, 12 concentration gradients in total) were added to bind to the antigen. Horseradish peroxidase (HRP)-conjugated mouse anti-human IgG4 Fc (Southern Biotech, 9200-05) was subjected to a 5000-fold dilution and used as a detection antibody for detection. The color development was performed with 0.1 mg/mL TMB, and finally stopped with 2 M hydrochloric acid. The plate was read at 420 nm/620 nm. EC₅₀ was obtained by fitting with a four-parameter logistic regression (4PL) model.

Row | Binder | Relative activity (%)
15 | B1 | 118
16 | B2 | 96.1
17 | B3 | 107
18 | B4 | 113
19 | B5 | 107
20 | B6 | 89.6

Molecular target: T2, hCD112R mFC recombinant protein
Assay: FACS competition, hCD112R mFc on CHO CD112 cells; ratio Ref/antibody
Protocol: (§3) Cells CHO CD112 overexpressing human CD112 were co-incubated with a hCD112R mFc protein solution (5 μg/mL) prepared in a staining buffer (PBS+1% FBS), and the chimeric anti-CD112R antibodies or the control antibodies at different concentrations (initial concentration: 100 μg/mL, 3-fold dilution, 10 concentration gradients) at 4° C. for 30 min. Unbound antibodies were then washed with a staining buffer and the cells were incubated with 1% (v/v) goat anti-mouse IgG Fc fluorescent secondary antibodies (Jackson ImmunoResearch) prepared in a staining buffer at 4° C. for 30 min in the dark. Finally, the cells were collected by using a flow cytometer (BD Canto II), and the fluorescent antibodies bound to the cell surface were detected. Raw data were analyzed by using FlowJo to obtain MFI values, and a four-parameter curve fitting was performed by using GraphPad Prism software to obtain IC₅₀ values. The positive control and the negative control were Ref (anti-CD112R antibody, University of Colorado, obtained by expression and purification according to the sequences in US20170240613) and the anti-KLH hu-IgG4 antibody, respectively.

Row | Binder | Relative activity (%)
21 | B4 | 121
22 | B5 | 132

Molecular target: T2, hCD112R mFC recombinant protein
Assay: FACS competition, hCD112R mFc on CHO CD112 cells
Protocol: as §3
As shown in FIG. 5 (a and b) and Table 8, the following 13 chimeric antibodies were all capable of effectively blocking the binding of the CD112R protein to CHO-CD112 cells.

Row | Binder | IC50 [µg/mL]
23 | B4 | 0.876
24 | B5 | 0.8

Molecular target: T2, hCD112R mFC recombinant protein
Assay: FACS blocking: hCD112R mFc (5 µg/mL) binding to human CD112 on CHO CD112 cells, MFI-APC; unit from the axis (µg/mL), Table 8 says ng/ml
Protocol: as §3

Row | Binder | IC50 [µg/mL]
25 | B4 | 0.876
26 | B5 | 0.8

Molecular target: T4, recombinant cynomolgus monkey CD112R …
Assay: ELISA, coated cynomolgus monkey CD112R
Protocol: as §2

Row | Binder | EC50 [µg/mL]
27 | B1 | 0.00298
28 | B2 | 0.00436
29 | B3 | 0.00327
30 | B4 | 0.00309
31 | B5 | 0.00326
32 | B6 | 0.00391

Molecular target: T3, human CD112R on CHO-CD112R cells
Assay: FACS on CHO-CD112R cells; EC50 Ref/EC50 antibody
Protocol: as §1

Row | Binder | Relative activity (%)
33 | B1 | 231
34 | B2 | 805
35 | B3 | 3520
36 | B8 | 35
37 | B4 | 600
38 | B5 | 388
39 | B6 | 478
